The target in the test is recombinant, GPI-linked human FcRn on the surface of NS0 cells (human) (UniProt P55899). Briefly: competitive flow cytometry on NS0 cells with human FcRn, pH 6.0; competitor biotinylated TNF-RII/Fc-fusion protein.
Chain of UniProt P55899 (P55899 24-297, chain 1 of 2): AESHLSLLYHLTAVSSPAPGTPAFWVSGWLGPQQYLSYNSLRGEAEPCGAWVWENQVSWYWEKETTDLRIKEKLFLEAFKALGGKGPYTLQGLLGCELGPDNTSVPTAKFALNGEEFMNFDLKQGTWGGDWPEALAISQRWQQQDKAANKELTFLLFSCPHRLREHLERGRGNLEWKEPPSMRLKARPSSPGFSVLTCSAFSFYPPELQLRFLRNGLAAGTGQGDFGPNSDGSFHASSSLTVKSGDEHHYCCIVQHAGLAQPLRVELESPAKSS
Chain of UniProt P55899 (b2m, as listed by the source, chain 2 of 2): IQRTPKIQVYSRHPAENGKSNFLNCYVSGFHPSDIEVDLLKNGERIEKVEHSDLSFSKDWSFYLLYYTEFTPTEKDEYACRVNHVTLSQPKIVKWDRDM

For “TNF-RII/Fc-fusion protein double mutant T250Q/M428L (Fc fusion)”, the fold better binding than the wild-type is 2 fold.

The values are drawn from patent US20050226864A1.
